Experimental data taken from patent US20170097333A1 (Merck Sharp & Dohme, published 2017).
One block for each molecule: values may come before it.

Columns and labels:
human CD3 (human) [1] = molecular target: human CD3 (human) (UniProt P07766); test: FACS staining of Jurkat clone A1, relative to control antibody mIgG1 pacblue
human CD3 (human) [2] = molecular target: human CD3 (human) (UniProt P07766); test: FACS staining of Jurkat clone D7, relative to control antibody mIgG1 pacblue
human CD3 (human) [3] = molecular target: human CD3 (human) (UniProt P07766); test: FACS staining of Jurkat clone E6, relative to control antibody mIgG1 pacblue
human CD3 (human) [4] = molecular target: human CD3 (human) (UniProt P07766); test: FACS staining of Jurkat clone F5, relative to control antibody mIgG1 pacblue
human CD3 (human) [5] = molecular target: human CD3 (human) (UniProt P07766); test: FACS staining of Jurkat clone G3, relative to control antibody mIgG1 pacblue
human CD3 (human) [6] = molecular target: human CD3 (human) (UniProt P07766); test: FACS staining of Jurkat clone H3, relative to control antibody mIgG1 pacblue
human CD3 (human) [7] = molecular target: human CD3 (human) (UniProt P07766); test: FACS staining of Jurkat clone F11, relative to control antibody mIgG1 pacblue
human CD3 (human) [8] = molecular target: human CD3 (human) (UniProt P07766); test: FACS staining of Jurkat clone G10, relative to control antibody mIgG1 pacblue
human CD3 (human) [9] = molecular target: human CD3 (human) (UniProt P07766); test: FACS staining of Jurkat clone G10 (passage P4), relative to control antibody mIgG1-pacblue
human CD3 (human) [10] = molecular target: human CD3 (human) (UniProt P07766); test: FACS staining of Jurkat clone G10 (passage P6), relative to control antibody mIgG1-pacblue
human CD3 (human) [11] = molecular target: human CD3 (human) (UniProt P07766); test: FACS staining of Jurkat clone G10 (passage P12), relative to control antibody mIgG1-pacblue
human CD3 (human) [12] = molecular target: human CD3 (human) (UniProt P07766); test: FACS staining of Jurkat clone G10 (passage P14), relative to control antibody mIgG1-pacblue
human CD3 (human) [13] = molecular target: human CD3 (human) (UniProt P07766); test: FACS staining of Jurkat clone G10 (passage P17), relative to control antibody mIgG1-pacblue
human CD3 (human) [14] = molecular target: human CD3 (human) (UniProt P07766); test: FACS staining of Jurkat clone G10 (passage ~P3), relative to control antibody mIgG1-pacblue
human LAG3 [15] = molecular target: T1, human LAG3 (human, UniProt P18627 23-525); test: FACS staining of human LAG3 Jurkat clone G10 (passage P4), relative to control antibody Herceptin-DyLight 650
T1 construct: Expressed from a transgene on Jurkat cells
T1 sequence: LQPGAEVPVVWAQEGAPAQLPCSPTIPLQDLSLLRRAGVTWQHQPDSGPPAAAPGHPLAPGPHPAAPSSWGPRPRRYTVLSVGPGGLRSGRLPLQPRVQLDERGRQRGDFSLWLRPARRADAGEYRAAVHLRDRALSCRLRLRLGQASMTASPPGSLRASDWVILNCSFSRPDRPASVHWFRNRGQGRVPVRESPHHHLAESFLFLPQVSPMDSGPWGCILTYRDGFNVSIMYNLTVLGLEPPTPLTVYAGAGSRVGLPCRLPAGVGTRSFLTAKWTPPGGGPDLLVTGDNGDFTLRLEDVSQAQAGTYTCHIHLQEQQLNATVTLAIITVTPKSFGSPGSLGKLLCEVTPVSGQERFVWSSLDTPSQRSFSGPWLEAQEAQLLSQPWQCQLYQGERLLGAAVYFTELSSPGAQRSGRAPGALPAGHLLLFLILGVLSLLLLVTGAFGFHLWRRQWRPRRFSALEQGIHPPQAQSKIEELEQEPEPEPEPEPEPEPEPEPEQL

human LAG3 [16] = molecular target: T1, human LAG3; test: FACS staining of human LAG3 Jurkat clone G10 (passage P6), relative to control antibody Herceptin-DyLight 650
human LAG3 [17] = molecular target: T1, human LAG3; test: FACS staining of human LAG3 Jurkat clone G10 (passage P12), relative to control antibody Herceptin-DyLight 650
human LAG3 [18] = molecular target: T1, human LAG3; test: FACS staining of human LAG3 Jurkat clone G10 (passage P14), relative to control antibody Herceptin-DyLight 650
human LAG3 [19] = molecular target: T1, human LAG3; test: FACS staining of human LAG3 Jurkat clone G10 (passage P17), relative to control antibody Herceptin-DyLight 650
human LAG3 [20] = molecular target: T1, human LAG3; test: FACS staining of human LAG3 Jurkat clone G10 (passage ~P3), relative to control antibody Herceptin-DyLight 650

human CD3 (human), sequence (P07766 23-207): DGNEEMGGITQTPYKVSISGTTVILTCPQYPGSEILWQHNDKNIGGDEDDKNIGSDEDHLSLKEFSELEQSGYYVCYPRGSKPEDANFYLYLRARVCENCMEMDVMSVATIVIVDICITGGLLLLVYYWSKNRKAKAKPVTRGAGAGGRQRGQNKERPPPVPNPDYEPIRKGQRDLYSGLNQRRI

CD3 expression (Fold Change) (human CD3 (human) [1]): 3.5 fold
CD3 expression (Fold Change) (human CD3 (human) [2]): 3.4 fold
CD3 expression (Fold Change) (human CD3 (human) [3]): 8.5 fold
CD3 expression (Fold Change) (human CD3 (human) [4]): 7.5 fold
CD3 expression (Fold Change) (human CD3 (human) [5]): 5.3 fold
CD3 expression (Fold Change) (human CD3 (human) [6]): 5 fold
CD3 expression (Fold Change) (human CD3 (human) [7]): 3.9 fold
CD3 expression (Fold Change) (human CD3 (human) [8]): 8.4 fold
CD3 expression (Fold Change) (human CD3 (human) [9]): 7.2 fold
CD3 expression (Fold Change) (human CD3 (human) [10]): 8 fold
CD3 expression (Fold Change) (human CD3 (human) [11]): 6.4 fold
CD3 expression (Fold Change) (human CD3 (human) [12]): 6.9 fold
CD3 expression (Fold Change) (human CD3 (human) [13]): 4.7 fold
CD3 expression (Fold Change) (human CD3 (human) [14]): 10.9 fold
Molecule: maHuCD3 pacblue (mouse anti-human CD3E antibody Clone SP34-2)

Lag3 Expression (Fold Change) (human LAG3 [15]): 5.6 fold
Lag3 Expression (Fold Change) (human LAG3 [16]): 2 fold
Lag3 Expression (Fold Change) (human LAG3 [17]): 7.3 fold
Lag3 Expression (Fold Change) (human LAG3 [18]): 7.2 fold
Lag3 Expression (Fold Change) (human LAG3 [19]): 7.3 fold
Lag3 Expression (Fold Change) (human LAG3 [20]): 6.1 fold
B1: Ab6: humanized anti-human LAG3 VH6 N55D/VL3, IgG4 S228P/Kappa (antibody, V domains shown)
VH: QMQLVQSGPEVKKPGTSVKVSCKASGYTFTDYNVDWVRQARGQRLEWIGDINPNDGGTIYAQKFQERVTITVDKSTSTAYMELSSLRSEDTAVYYCARNYRWFGAMDHWGQGTTVTVSS
VL: DIVMTQTPLSLSVTPGQPASISCKASQSLDYEGDSDMNWYLQKPGQPPQLLIYGASNLESGVPDRFSGSGSGTDFTLKISRVEAEDVGVYYCQQSTEDPRTFGGGTKVEIKR
notes: also called 51AHH; light chain 45AGX
